Measured values from PMC3584034.

Experiments:
[1] = target: T1, EpCAM (human (breast and colon cancer cell lines)) (UniProt P16422); experiment: cell binding (method not given); settings: 2'-fluoropyrimidine (Methods: 2'-fluoropyrimidine or 2'-O-methyl-pyrimidine bases); 3' inverted dT; FFPE staining: PBS, 5 mM MgCl2, 0.1 mg/mL tRNA, 1 mg/mL BSA, 10% dextran sulphate, 500 ug/mL heparin, 100 nM aptamer, 15 min, 37 C; flow cytometry: 100 nM …
T1 sequence: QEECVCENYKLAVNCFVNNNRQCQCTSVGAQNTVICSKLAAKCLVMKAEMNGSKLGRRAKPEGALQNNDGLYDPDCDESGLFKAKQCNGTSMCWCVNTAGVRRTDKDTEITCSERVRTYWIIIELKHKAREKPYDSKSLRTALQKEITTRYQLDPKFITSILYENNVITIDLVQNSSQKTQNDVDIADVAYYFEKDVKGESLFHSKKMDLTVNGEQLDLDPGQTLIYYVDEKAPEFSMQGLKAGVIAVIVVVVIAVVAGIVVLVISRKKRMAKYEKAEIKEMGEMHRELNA

[2] = target: T1, EpCAM (human (breast and colon cancer cell lines)); experiment: cell binding (cited); settings: 2'-fluoropyrimidine (Methods: 2'-fluoropyrimidine or 2'-O-methyl-pyrimidine bases); 3' inverted dT; FFPE staining: PBS, 5 mM MgCl2, 0.1 mg/mL tRNA, 1 mg/mL BSA, 10% dextran sulphate, 500 ug/mL heparin, 100 nM aptamer, 15 min, 37 C; flow cytometry: 100 nM …; cited from earlier work

## ACGUAUCCCUUUUCGCGUA [Ep23]
[1]
  Kd: 0.037 µM

## GCGACUGGUUACCCGGUCG [DT3]
[2]
  Kd: 0.158 µM
